The values that follow are results of earlier work, collected in article PMC5860782.

As a reminder, the Kd is the concentration at which binding is half-saturated.

This data set concerns the target clathrin light chain (Saccharomyces cerevisiae) (UniProt P17891).
UniProt P17891, sequence (P17891 whole entry): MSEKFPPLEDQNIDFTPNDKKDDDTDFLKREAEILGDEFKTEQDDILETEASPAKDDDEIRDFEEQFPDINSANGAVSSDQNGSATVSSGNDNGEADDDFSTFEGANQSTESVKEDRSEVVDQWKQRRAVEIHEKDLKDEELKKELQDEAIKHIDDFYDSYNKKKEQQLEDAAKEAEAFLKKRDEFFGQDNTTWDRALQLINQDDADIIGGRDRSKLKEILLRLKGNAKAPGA

For “clathrin heavy chain (from UniProt P22137)”, the dissociation constant Kd is 1 nM.
